Measured values from the supplement of paper PMC9170038.

Test system: MS2 coat protein
Assay: apparent KD of MS2 coat protein; designed switch direction (-1 OFF switch, 1 ON switch): -1; higher = weaker reporter binding
Summary of the method: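 RNA switches sharing common flanks were transcribed by stalled E. coli RNA polymerase on Illumina chips. A doubling series of SNAP-549-labelled MS2 coat protein, from 0.7 or 1.5 nM to 3 µM, was applied in Tris-HCl pH 7.5 buffer with KCl, MgCl2, BSA, DTT, tRNA and Tween-20. Each step lasted 0.8–1.5 h at the bottom of the series and 10–20 min at the top. Normalised cluster fluorescence was curve-fitted, giving apparent KD as the per-design median over clusters.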

[1] = Eterna round: R95, input ligand: FMN 200 uM
[2] = Eterna round: R95, input ligand: microRNA oligo, concentration not stated
[3] = Eterna round: R95, input ligand: none
[4] = input ligand: microRNA oligo, concentration not stated

| Sequence | apparent KD of MS2 coat protein [1] | apparent KD of MS2 coat protein [2] | apparent KD of MS2 coat protein [3] | apparent KD of MS2 coat protein (input ligand: FMN 200 uM) | apparent KD of MS2 coat protein (input ligand: none) | apparent KD of MS2 coat protein [4] |
| --- | --- | --- | --- | --- | --- | --- |
| ACAAGCUUUUUGCUCGUCUUGUAGAAACGUGAGAGCGAGACAUGAGGAUCACCCAUGUAAAGGCAGUAGGUGGAGAU [JR_SV3TOV2_Sub026] (puzzle: Sensor v3, turn-off variant 2) | 36.9 nM | 64.4 nM | 58.2 nM | – | – | – |
| ACAAGCUUUUUGCUCGUUUACAUGAGGAUCACCCAUGUGUCUUCACGCCCGGGCCCGGGCAAGCCCGGGCCCGGGCG [-47, -77, A 16%] (Eterna round: R97, puzzle: Sensor, turn-off variant 1) | – | – | – | 45.6 nM | 45 nM | – |
| ACAAGCUUUUUGUUCGUCUUAUACACUCCUAAUAAGACAACAUGAGGAUCACCCAUGUAACAAACAAGAACUCAUGU [Sesor Array 6 - Jieux - Sensor v3, turn-off variant 2] (puzzle: Sensor v3, turn-off variant 2) | 55.1 nM | 359 nM | 72.5 nM | – | – | – |
| ACAAGCUUUUUGUUCGUCUUAUACACUCCUAAUAAGACAACAUGAGGAUCACCCAUGUAACAAAGACGAACUCAUGU [Sesor Array 8 - Jieux - Sensor v3, turn-off variant 2] (puzzle: Sensor v3, turn-off variant 2) | 22.4 nM | 257 nM | 19.9 nM | – | – | – |
| ACAAGCUUUUUGUUCGUCUUAUACACUCCUAAUAAGACAACAUGAGGAUCACCCAUGUAAGAAAUAAGAACUCAUGU [Sesor Array 4 - Jieux - Sensor v3, turn-off variant 2] (puzzle: Sensor v3, turn-off variant 2) | 292 nM | 595 nM | 381 nM | – | – | – |
| ACACAGCGAGGAUAUACAUGAGGAUCACCCAUGUGGUGGCAGUUACGGUAGGACUAGUGUAGAAGGUGCAGUGG [EX3 #29] (Eterna round: R97, puzzle: Exclusion 3) | – | – | – | 485 nM | 800 nM | – |
| ACACCUCACGUCAGGAUAUCUAUCUCGAGUGAGGAAGAGAAGGGACAUGAGGAUCACCCAUGUAUAGAAAGAAU [Usissodi] (Eterna round: R97, puzzle: Brourd's mod of Exclusion 4) | – | – | – | 125 nM | 27.2 nM | – |
| ACAGGUUAAGGAUAUACAUGAGGAUCACCCAUGUCGAGUAUCUUGUCAUGCCGCCCAUGUAGAAGGUAACAUGG [Geale] (puzzle: Exclusion 3) | – | 14.3 nM | – | – | – | – |
| ACAGUACAUGAGGAUCACCCAUGUGAGGAUAUAGUAGUAUGGGAGACCAUACUAAAGACUAGAAGGCGCGGGCA [Exclusion 1 S1] (Eterna round: R97, puzzle: Exclusion 1) | – | – | – | 43.6 nM | 67 nM | – |
| ACAGUGUUAGGAUAUCUGAGAAUUAGUCUCGACUAGUCGAAGGAGAAGGAACAUGAGGAUCACCCAUGUAGAUC [EX4 #76] (Eterna round: R97, puzzle: Exclusion 4) | – | – | – | 295 nM | 41.6 nM | – |
| ACAUGACUGCUAGGAUAUAGAUGACAUGAGGAUCACCCAUGUUGUCCCAUGUUGAUGGAAACCGACUAGAAGGAGCAGCAUAUG [Ex NG2 #11] (Eterna round: R96, puzzle: Exclusion NG 2) | – | – | – | 47.4 nM | 35 nM | 22.9 nM |
| ACAUGAGGAUCACCCAUGUAAACAUAAUGGCUCAUGUAGAGUCAGGAUAUGCGUGGCGAACUCGCGCAGAAGGGACAAGACUGG [Deportation 23 - Jieux - Exclusion NG 3] (Eterna round: R96, puzzle: Exclusion NG 3) | – | – | – | 26.7 nM | 26.4 nM | 20.6 nM |
| ACAUGAGGAUCACCCAUGUAAGGUUGGUUUUCUCCGGCUGUUGAGGAUAUAGUCCGGUAUCCGCGCUAGAAGGUGAGGGUUGGC [Aenatbe mod 10] (Eterna round: R96, puzzle: Exclusion NG 3) | – | – | – | 73 nM | 77.2 nM | 71.2 nM |
| ACAUGAGGAUCACCCAUGUACAGGGUGUAGUUUCAUUGUUUGAAGGAUAUACUUAGUUAGUUGUUGUAGAAGGUCAUAUUUCAU [JR_ExcNG3_Sub001] (Eterna round: R96, puzzle: Exclusion NG 3) | – | – | – | 126 nM | 1040 nM | 500 nM |
| ACAUGAGGAUCACCCAUGUACAGGGUUUAGCCUCAUUGUUUGAAGGAUAUACUCAGUUAGUUGUUGUAGAAGGUCACCUUUUAU [JR_ExcNG3_Sub003] (Eterna round: R96, puzzle: Exclusion NG 3) | – | – | – | 3450 nM | 1360 nM | 1730 nM |
| ACAUGAGGAUCACCCAUGUACAGGGUUUAGUUUCAUCGUUUGAAGGAUAUACUCCGUUAGUUGUCGUAGAAGGUCACAUUUUGG [JR_ExcNG3_Sub006] (Eterna round: R96, puzzle: Exclusion NG 3) | – | – | – | 189 nM | 145 nM | 120 nM |
| ACAUGAGGAUCACCCAUGUACAGGGUUUAGUUUCAUCGUUUGAAGGAUAUACUCCGUUAGUUGUUGUAGAAGGUCACAUUUUGG [JR_ExcNG3_Sub005] (Eterna round: R96, puzzle: Exclusion NG 3) | – | – | – | 167 nM | 142 nM | 89.2 nM |
| ACAUGAGGAUCACCCAUGUCAGGCAGGUCCACUCCGGCUGUUGAGGAUAUAGCCCGGUAUCCGCGCUAGAAGGUGAGGGCCGGC [Aenatbe mod 26] (Eterna round: R96, puzzle: Exclusion NG 3) | – | – | – | 15.3 nM | 21.6 nM | 15.7 nM |
| ACAUGAGGAUCACCCAUGUCAGGUUGGUUCUCUCCGGCUGUUGAGGAUAUAGUCCGGUAUCCGCGCUAGAAGGUGAGGGCUGGC [Aenatbe mod 14] (Eterna round: R96, puzzle: Exclusion NG 3) | – | – | – | 19.6 nM | 25.1 nM | 20.1 nM |
| ACAUGAGGAUCACCCAUGUCCGGCUGGUCCGUCUCGGCUGUCGAGGAUAUAGCUUGGUGUCCGCGCUAGAAGGUGGGAGCCGGU [Aenatbe mod 70] (Eterna round: R96, puzzle: Exclusion NG 3) | – | – | – | 61 nM | 56.6 nM | 40.2 nM |
| ACAUGAGGAUCACCCAUGUCCGGCUGGUCCGUCUCGGCUGUCGAGGAUAUGGCUCGGUGUCCGCGCUAGAAGGUGGGAGCCGGU [Aenatbe mod 74] (Eterna round: R96, puzzle: Exclusion NG 3) | – | – | – | 100 nM | 103 nM | 54 nM |
| ACAUGAGGAUCACCCAUGUCCGGCUGGUCUGUCUCGGCUGUCGAGGAUAUAGCACGGUAUCCGCGCUAGAAGGCGGGAGCCGGC [Aenatbe mod 89] (Eterna round: R96, puzzle: Exclusion NG 3) | – | – | – | 99.5 nM | 47.4 nM | 34.6 nM |
| ACAUGAGGAUCACCCAUGUCUGGCUGGUCCGCUCCGGCUGUUGAGGAUAUAGCUCGGUGUCCGCGCUAGAAGGUGAGGGCUGGC [Aenatbe mod 34] (Eterna round: R96, puzzle: Exclusion NG 3) | – | – | – | 32.4 nM | 31.9 nM | 19.5 nM |
| ACAUGAGGAUCACCCAUGUCUGGCUGGUCCGUCUCGGCUGUCGAGGAUAUGGCUCGGUGUCCGCGCUAGAAGGCGGGAGCUGGA [Aenatbe mod 78] (Eterna round: R96, puzzle: Exclusion NG 3) | – | – | – | 193 nM | 68.2 nM | 43 nM |
| ACAUGAGGAUCACCCAUGUGAAAACAAUGGCUGACUUUGAGAUAGGAUAUAUGUGCAUAUCAAACAUAGAAGGGUCAUUACUGG [Deportation 90 - Jieux - Exclusion NG 3] (Eterna round: R96, puzzle: Exclusion NG 3) | – | – | – | 41.4 nM | 47.2 nM | 25.9 nM |
| ACAUGAGGAUCACCCAUGUGAACGAAAAGGCUCAUGUAGAGUGAGGAUAUGUGAGACGAACGAGAACAGAAGGCACAAGACAGG [Deportation 1 - Jieux - Exclusion NG 3] (Eterna round: R96, puzzle: Exclusion NG 3) | – | – | – | 20.7 nM | 35.4 nM | 19.5 nM |
| ACAUGAGGAUCACCCAUGUGACAAUAAUGGCUGAUACAGAGACAGGAUAUACGUGAAUAUCUAACGUAGAAGGGUCAUGACUGG [Deportation 70 - Jieux - Exclusion NG 3] (Eterna round: R96, puzzle: Exclusion NG 3) | – | – | – | 30.5 nM | 41.9 nM | 35.8 nM |
| ACAUGAGGAUCACCCAUGUGACCACGAUGGCUGAUGUAAAGACAGGAUAUGUGUGAAUAUCUAUCACAGAAGGGUCUUGACUGG [Deportation 55 - Jieux - Exclusion NG 3] (Eterna round: R96, puzzle: Exclusion NG 3) | – | – | – | 24.1 nM | 30.6 nM | 22 nM |
| ACAUGAGGAUCACCCAUGUGACCAUGAUGGCUGAUGUAGAGCUAGGAUAUGAGUGAAUAUCUAUCUCAGAAGGAGCUUGACUGG [Deportation 48 - Jieux - Exclusion NG 3] (Eterna round: R96, puzzle: Exclusion NG 3) | – | – | – | 16.7 nM | 21.3 nM | 15.4 nM |
| ACAUGAGGAUCACCCAUGUUUUUCGGGUACUCUUUUUACAGCAAGGAUAUGCAUUAUUUAUGUACGCAGAAGGUGCUUUACGUC [JR_ExcNG3_Sub065] (Eterna round: R96, puzzle: Exclusion NG 3) | – | – | – | – | – | 82.9 nM |
